Biological target: T1, Clostridium difficile toxin A (TcdA) (Clostridium difficile, UniProt P16154 1-2710)
T1 construct: also called TxA; rTcdA
Experiment: binding kinetics, method not stated

T1 sequence (P16154 whole entry): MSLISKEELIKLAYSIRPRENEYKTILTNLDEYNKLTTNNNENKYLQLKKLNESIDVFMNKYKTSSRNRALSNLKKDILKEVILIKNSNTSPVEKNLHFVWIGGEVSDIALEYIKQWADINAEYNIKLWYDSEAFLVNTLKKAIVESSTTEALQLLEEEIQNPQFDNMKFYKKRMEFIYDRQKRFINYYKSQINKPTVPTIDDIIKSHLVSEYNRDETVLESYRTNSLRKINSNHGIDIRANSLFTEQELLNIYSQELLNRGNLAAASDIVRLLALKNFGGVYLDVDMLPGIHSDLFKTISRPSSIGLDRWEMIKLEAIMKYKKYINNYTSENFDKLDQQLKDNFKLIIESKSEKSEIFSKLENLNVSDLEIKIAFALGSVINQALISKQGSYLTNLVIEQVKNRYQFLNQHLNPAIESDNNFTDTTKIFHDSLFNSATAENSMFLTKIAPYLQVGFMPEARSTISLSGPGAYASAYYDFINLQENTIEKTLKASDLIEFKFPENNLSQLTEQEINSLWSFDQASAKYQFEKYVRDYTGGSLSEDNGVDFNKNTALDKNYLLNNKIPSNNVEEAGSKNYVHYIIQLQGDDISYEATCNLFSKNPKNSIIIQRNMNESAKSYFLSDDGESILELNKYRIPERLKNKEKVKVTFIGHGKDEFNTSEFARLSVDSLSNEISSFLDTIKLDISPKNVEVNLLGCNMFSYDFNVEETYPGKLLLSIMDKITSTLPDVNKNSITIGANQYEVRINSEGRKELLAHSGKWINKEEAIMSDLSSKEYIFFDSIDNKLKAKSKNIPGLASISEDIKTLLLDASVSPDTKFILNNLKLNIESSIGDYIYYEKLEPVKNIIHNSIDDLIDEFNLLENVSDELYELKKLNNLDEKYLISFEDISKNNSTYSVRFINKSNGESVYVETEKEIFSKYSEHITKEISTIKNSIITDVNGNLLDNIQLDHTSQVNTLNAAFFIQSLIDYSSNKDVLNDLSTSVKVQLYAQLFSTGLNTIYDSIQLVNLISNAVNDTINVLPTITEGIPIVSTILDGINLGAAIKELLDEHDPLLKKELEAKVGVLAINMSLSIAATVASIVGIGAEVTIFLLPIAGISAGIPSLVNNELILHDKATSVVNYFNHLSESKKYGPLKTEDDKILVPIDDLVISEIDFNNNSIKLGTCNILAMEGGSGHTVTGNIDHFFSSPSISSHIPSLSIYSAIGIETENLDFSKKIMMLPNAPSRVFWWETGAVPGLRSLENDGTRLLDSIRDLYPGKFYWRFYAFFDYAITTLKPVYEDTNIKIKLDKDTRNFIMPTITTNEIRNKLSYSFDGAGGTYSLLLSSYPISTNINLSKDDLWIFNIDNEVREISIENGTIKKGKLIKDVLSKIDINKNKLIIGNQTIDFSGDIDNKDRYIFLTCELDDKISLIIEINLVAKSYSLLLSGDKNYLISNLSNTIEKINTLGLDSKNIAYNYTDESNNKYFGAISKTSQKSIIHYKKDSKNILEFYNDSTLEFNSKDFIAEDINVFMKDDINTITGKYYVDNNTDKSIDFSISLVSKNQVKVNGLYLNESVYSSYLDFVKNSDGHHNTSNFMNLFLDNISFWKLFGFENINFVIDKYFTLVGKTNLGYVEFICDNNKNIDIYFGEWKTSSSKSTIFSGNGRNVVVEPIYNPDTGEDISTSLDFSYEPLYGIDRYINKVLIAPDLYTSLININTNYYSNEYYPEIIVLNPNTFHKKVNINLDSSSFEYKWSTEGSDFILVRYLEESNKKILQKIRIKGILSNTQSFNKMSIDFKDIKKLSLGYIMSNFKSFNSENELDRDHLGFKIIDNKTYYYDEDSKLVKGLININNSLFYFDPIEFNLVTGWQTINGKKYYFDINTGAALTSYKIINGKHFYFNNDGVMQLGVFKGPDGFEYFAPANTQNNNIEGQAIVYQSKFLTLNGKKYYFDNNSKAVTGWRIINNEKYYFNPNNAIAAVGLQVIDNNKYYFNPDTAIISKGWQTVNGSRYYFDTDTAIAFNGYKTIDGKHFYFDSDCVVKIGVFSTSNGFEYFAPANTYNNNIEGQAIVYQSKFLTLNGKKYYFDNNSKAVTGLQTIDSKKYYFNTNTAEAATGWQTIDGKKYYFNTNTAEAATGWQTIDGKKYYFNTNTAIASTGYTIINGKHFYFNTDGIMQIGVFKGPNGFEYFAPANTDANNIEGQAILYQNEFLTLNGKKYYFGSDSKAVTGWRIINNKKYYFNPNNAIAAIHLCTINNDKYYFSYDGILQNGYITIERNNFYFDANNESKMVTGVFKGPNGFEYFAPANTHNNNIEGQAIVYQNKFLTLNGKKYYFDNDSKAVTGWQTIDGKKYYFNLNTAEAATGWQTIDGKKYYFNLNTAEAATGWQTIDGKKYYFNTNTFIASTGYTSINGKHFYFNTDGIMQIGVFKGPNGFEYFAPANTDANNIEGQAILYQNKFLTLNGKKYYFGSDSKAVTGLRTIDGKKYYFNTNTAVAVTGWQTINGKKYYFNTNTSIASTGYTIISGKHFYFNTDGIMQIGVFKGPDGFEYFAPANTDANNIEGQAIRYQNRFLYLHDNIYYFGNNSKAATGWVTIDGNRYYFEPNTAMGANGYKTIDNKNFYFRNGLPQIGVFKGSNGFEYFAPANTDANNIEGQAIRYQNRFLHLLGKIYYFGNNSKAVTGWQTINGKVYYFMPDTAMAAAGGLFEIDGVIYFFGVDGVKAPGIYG

Row | Binder | Kd [nM] | koff [s⁻¹] | kon [M⁻¹ s⁻¹]
1 | AA6 VHH peptide monomer (VHH) VHH: QLQLVETGGGLVQPGGSLRLSCAASGFTFSDYVMTWVRQAPGKGPEWIATINTDGSTMRDDSTKGRFTISRDNAKNTLYLQMTSLKPEDTALYYCARGRVISASAIRGAVRGPGTQVTVSS | 19.7 | 0.000692 | 35200
2 | ABAB binding agent (AH3/5D/AA6/E3), tetra-specific, tetrameric VHH binding agent (designed binder, also called r-ABAB; recombinant ABAB) QVQLVETGGGLVQPGGSLRLSCAASGFTLDYSSIGWFRQAPGKEREGVSCISSSGDSTKYADSVKGRFTTSRDNAKNTVYLQMNSLKPDDTAVYYCAAFRATMCGVFPLSPYGKDDWGKGTLVTVSSGGGGSGGGGSGGGGSQVQLVESGGGLVQPGGSLRLSCEASGFTLDYYGIGWFRQPPGKEREAVSYISASARTILYADSVKGRFTISRDNAKNAVYLQMNSLKREDTAVYYCARRRFSASSVNRWLADDYDVWGRGTQVAVSSGGGSGGGSGGGSGGGSQLQLVETGGGLVQPGGSLRLSCAASGFTFSDYVMTWVRQAPGKGPEWIATINTDGSTMRDDSTKGRFTISRDNAKNTLYLQMTSLKPEDTALYYCARGRVISASAIRGAVRGPGTQVTVSSGGGGSGGGGSGGGGSQVQLVESGGGLVQTGGSLRLSCASSGSIAGFETVTWSRQAPGKSLQWVASMTKTNNEIYSDSVKGRFIISRDNAKNTVYLQMNSLKPEDTGVYFCKGPELRGQGIQVTVSS | 0.002 | 1.21e-06 | 696000

Reference: US20230340087A1 (published 2023)
